Experimental findings from US20060264369, “Aptamers to von Willebrand Factor and their use as thrombotic disease therapeutics” (published 2006) are described below.

The target of data set [1] is von Willebrand factor A1 domain (human) (Homo sapiens, UniProt P04275 SEQ:13-246). Briefly: filter; 100 nM protein. As to the method:
All unique clones were assayed in a 3-point dot blot screen (no protein target control, 100 nM human vWF A1 domain (SEQ ID NO 5), or 100 nM rabbit vWF A1 domain (SEQ ID NO 6). The data are presented in the third and fourth columns of Table 14 below as the ratio of the fraction of the aptamer bound to the nitrocellulose in the presence of the target protein to the fraction of aptamer bound in the absence of the target protein.

Data set [2] deals with T1, von Willebrand factor full length (Homo sapiens, UniProt P04275 SEQ:764-2813). In words: filter. The note with it: tags: Calbiochem 681300. The method, then:
For KD determination, chemically synthesized aptamers were purified using denaturing polyacrylamide gel electrophoresis, 5′end labeled with γ-³²P ATP and were tested for direct binding to full length human vWF (Calbiochem Cat.# 681300, La Jolla, Calif.). An 8 point protein titration was used in the dot blot binding assay (100 nM, 30 nM, 10 nM, 3 nM, 1 nM, 300 pM, 100 pM, 0 pM)) in 1× Dulbecco's PBS containing […] (final volume of 50 uL) for 30 minutes at room temperature. KD values were calculated by fitting the equation y=(max/(1+K/protein))+yint using KaleidaGraph (KaleidaGraph v. 3.51, Synergy Software).

Data set [3] has as its target T1, von Willebrand factor full length. Briefly: filter; 20 nM protein. The note with it: tags: Calbiochem 681300. The method, then: When a significant positive ratio of binding of DNA in the presence of human or rabbit vWF A1 domain versus in the absence of protein was seen, the pools were cloned using the TOPO TA cloning kit (Invitrogen Cat.# 45-0641, Carlsbad, Calif.) according to the manufacturer's instructions. […] All unique clones were assayed twice in a 3-point dot blot screen (no protein target control, 20 nM full length human vWF (Calbiochem Cat.# 681300, La Jolla, Calif.), or 20 nM rabbit vWF A1 domain. The data is presented in the third and fourth columns of Table 17 below as the ratio of the fraction of the aptamer bound to the nitrocellulose in the presence of the target protein to the fraction of aptamer bound in the absence of the target protein.

B1: AMX200.A11 (ssDNA)
DNA: CTACCTACGATCTGACTAGCTGAGTAGTTAGTAACTTTTTATTATGGTTTGGTGGGTCTGGCTTACTCTCATGTAGTTCC
As to B1, the binding signal in data set [1] was 1.49 ratio to no protein.

B2: AMX200.H8 (ssDNA)
DNA: CTACCTACGATCTGACTAGCTGAGTAGTCAGTAATTTTTTATTATGGTTTGGTGGGCCTGGCTTACTCTCATGTAGTTCC
With B2, in data set [1], the binding signal was 1.86 ratio to no protein.

B3: ARC1362 (mixed)
mixed: GCGUGCAGUGCCUUCGGCCGTGCGGTGCCUCCGUCACGC
modifications: 2'-OMe at 1-4,8-18,20,22,27,28,30,33,34,36-39, rest deoxy; PS between 4 and 5; 3'-idT
For the molecule B3, the Kd – broadly, the constant that tells how readily two partners part at equilibrium – in data set [2] was determined as 9.9 nM.

B4: ARC1363 (mixed)
mixed: GCGUGCAGUGCCUUCGGCCGTGCGGTGCCUCCGUCACGC
modifications: 2'-OMe at 1-4,8-18,20,22,27,28,30,33,34,36-39, rest deoxy; PS between 5 and 6; 3'-idT
As for B4, in data set [2], the Kd amounted to 12.7 nM.

B5: ARC1366 (mixed)
mixed: GCGUGCAGUGCCUUCGGCCGTGCGGTGCCUCCGUCACGC
modifications: 2'-OMe at 1-4,8-18,20,22,27,28,30,33,34,36-39, rest deoxy; PS between 18 and 19; 3'-idT
For the molecule B5, in data set [2], the Kd was 15.5 nM.

B6: ARC1364 (mixed)
mixed: GCGUGCAGUGCCUUCGGCCGTGCGGTGCCUCCGUCACGC
modifications: 2'-OMe at 1-4,8-18,20,22,27,28,30,33,34,36-39, rest deoxy; PS between 6 and 7; 3'-idT
For the molecule B6, the Kd in data set [2] was 8.2 nM.

B7: ARC1367 (mixed)
mixed: GCGUGCAGUGCCUUCGGCCGTGCGGTGCCUCCGUCACGC
modifications: 2'-OMe at 1-4,8-18,20,22,27,28,30,33,34,36-39, rest deoxy; PS between 19 and 20; 3'-idT
Consider B7, for which the Kd in data set [2] is 13.9 nM.

B8: ARC1369 (mixed)
mixed: GCGUGCAGUGCCUUCGGCCGTGCGGTGCCUCCGUCACGC
modifications: 2'-OMe at 1-4,8-18,20,22,27,28,30,33,34,36-39, rest deoxy; PS between 21 and 22; 3'-idT
In the case of B8, the dissociation constant (Kd) in data set [2] amounted to 16.3 nM.

B9: ARC1365 (mixed)
mixed: GCGUGCAGUGCCUUCGGCCGTGCGGTGCCUCCGUCACGC
modifications: 2'-OMe at 1-4,8-18,20,22,27,28,30,33,34,36-39, rest deoxy; PS between 7 and 8; 3'-idT
Regarding B9, the Kd in data set [2] worked out at 10.8 nM.

B10: AMX199.F8 (ssDNA)
DNA: CTACCTACGATCTGACTAGCAAGGGGATTGGCTCCGGGTCTGGCGTGCTTGGCACCTCTGGCTTACTCTCATGTAGTTCC
Consider B10, for which the binding signal in data set [1] was 1.78 ratio to no protein.

B11: AMX202.F6 (ssDNA)
DNA: CTACCTACGATCTGACTAGCAAGGGGATTGGCTCCGGGTCTGGCGTGCTCGGCACCTTCGGCTTACTCTCATGTAGTTCC
B11: the binding signal in data set [1] was 1.49 ratio to no protein.

B12: AMX200.E10 (ssDNA)
DNA: CTACCTACGATCTGACTAGCAAGGGGATTGGCTCCGGGTCTGGCGTGCTCGGCACCTTTGGCTTACTCTCATGTAGTTCC
Turning to B12, the binding signal in data set [1] is 1.69 ratio to no protein.

B13: AMX199.D8 (ssDNA)
DNA: CTACCTACGATCTGACTAGCAAGGGGATTGGCTCCGGGTCTGGCGTGCTTGGCATCTTCGGCTTACTCTCATGTAGTTCC
Take B13: in data set [1], the binding signal was 1.89 ratio to no protein.

B14: AMX199.B6 (ssDNA)
DNA: CTACCTACGATCTGACTAGCAAGGGGATTGGCTCCGGGTCTGGCGTGCTTGGTACCTCCGGCTTACTCTCATGTAGTTCC
For B14, the binding signal in data set [1] was 2.01 ratio to no protein.

B15: AMX199.G5 (ssDNA)
DNA: CTACCTACGATCTGACTAGCGAAACACTAGGTTGGTTAGGATTGGTGTGTTCCCGCCCTGCTTACTCTCATGTAGTTCC
As for B15, the binding signal in data set [1] is 1.41 ratio to no protein.

B16: AMX199.F11 (ssDNA)
DNA: CTACCTACGATCTGACTAGCGAAACACTAGGTTGGTTAGGATTGGTGTGTTTCTGCTCTGCTTACTCTCATGTAGTTCC
As for B16, the binding signal in data set [1] is 1.44 ratio to no protein.

B17: AMX200.G11 (ssDNA)
DNA: CTACCTACGATCTGACTAGCGGAACGAGAATGCTGATGGATTGCTCAGGTCTGCTGGCTGCTTACTCTCATGTAGTTCC
With B17, the binding signal in data set [1] is 1.73 ratio to no protein.

B18: AMX200.B9 (ssDNA)
DNA: CTACCTACGATCTGACTAGCGGAATGAGAATGCTGATGGATTGCTCAGGTCTGCTGACTGCTTACTCTCATGTAGTTCC
Consider B18, for which the binding signal in data set [1] was 2.54 ratio to no protein.

B19: AMX200.B8 (ssDNA)
DNA: CTACCTACGATCTGACTAGCGGAATGAGAATGTTGGTGGATTGCTCAGGTCTGCTGGCTGCTTACTCTCATGTAGTTCC
B19: the binding signal in data set [1] is 4.13 ratio to no protein.

B20: AMX200.D8 (ssDNA)
DNA: CTACCTACGATCTGACTAGCGGAATGAGAATGTTGATGGATTGCTCAGGTCTGCTGGCTGCTTACTCTCATGTAGTTCC
With B20, the binding signal in data set [1] is 2.86 ratio to no protein.

B21: AMX200.A7 (ssDNA)
DNA: CTACCTACGATCTGACTAGCGGAATGAGAATGCTGATGGATTGTTCAGGTCTGCTGGCTGCTTACTCTCATGTAGTTCC
Regarding B21, the binding signal in data set [1] is 0.97 ratio to no protein.

B22: AMX202.H10 (ssDNA)
DNA: CTACCTACGATCTGACTAGCGGAATGAGAAGGCTGGTGGATTGCTCAGGTCTGCTGGCTGCTTACTCTCATGTAGTTCC
For the molecule B22, in data set [1], the binding signal is 1.92 ratio to no protein.

B23: AMX202.A3 (ssDNA)
DNA: CTACCTACGATCTGACTAGCGGAATGAGAGCGCTGATGGATTGCTCAGGTCTGCTGGCTGCTTACTCTCATGTAGTTCC
Consider B23, for which the binding signal in data set [1] is 2.28 ratio to no protein.

B24: AMX200.E8 (ssDNA)
DNA: CTACCTACGATCTGACTAGCGGAATGAGGATGCTGGTGGATTGCTCAGGTCTGTTGGCTGCTTACTCTCATGTAGTTCC
As for B24, the binding signal in data set [1] was 1.04 ratio to no protein.

B25: AMX202.D6 (ssDNA)
DNA: CTACCTACGATCTGACTAGCGGAATGAGAAGGCTGATGGATTGCTCAGGTCTGCTGGCTGCTTACTCTCATGTAGTTCC
Consider B25, for which the binding signal in data set [1] was 1.94 ratio to no protein.

B26: AMX200.D11 (ssDNA)
DNA: CTACCTACGATCTGACTAGCGGAATAAGAATGCTGATGGATTGCTCAGGTCTGCTGGCTGCTTACTCTCATGTAGTTCC
As for B26, the binding signal in data set [1] is 3.34 ratio to no protein.

B27: AMX200.B1 (ssDNA)
DNA: CTACCTACGATCTGACTAGCGGAATGAGAATGCTGATGGATTGCCCAGGTCTGCTGGCTGCTTACTCTCATGTAGTTCC
Consider B27, for which the binding signal in data set [1] was 4.01 ratio to no protein.

B28: AMX200.F9 (ssDNA)
DNA: CTACCTACGATCTGACTAGCGGAATGAGGATGCTGATGGATTGGTCAGGTCTGCTGGCTGCTTACTCTCATGTAGTTCC
Turning to B28, in data set [1], the binding signal was 0.97 ratio to no protein.

B29: AMX202.B8 (ssDNA)
DNA: CTACCTACGATCTGACTAGCGGAATGAGTATGCTGATGGATTGCTCAGGTCTGCTGGCTGCTTACTCTCATGTAGTTCC
For the molecule B29, the binding signal in data set [1] was 1.66 ratio to no protein.

B30: AMX237.E2 (ssDNA)
DNA: CTACCTACGATCTGACTAGCTCCAGTGTTTCATCTAATAACCGTGCGGTGCCTCCGTGAGCTTACTCTCATGTAGTTCC
With B30, the binding signal in data set [3] is 1.61 ratio to no protein.

B31: AMX237.B4 (ssDNA)
DNA: CTACCTACGATCTGACTAGCTCCAGTGTTTCATCCAATAACCGTGCGGTGCTTCCGTGAGCTTACTCTCATGTAGTTCC
Regarding B31, the binding signal in data set [3] is 1.42 ratio to no protein.
